Common to all, as to assay type: cell-based
Experiment [1] deals with RS;411. The experiment can be described thus: JNG assay, co-culture with RS;411 cells. The conditions noted are these: for NFAT-GFP ASSAY: RS411: co-culture with RS411. On the procedure: Cellular supernatant is collected and assayed for the induction of cytokines (e.g., IL2).
JNG (Jurkat cells expressing EGFP under an NFAT promoter) were infected with lentiviral vectors encoding different single chain and multi-chain SARs by spinfection in the presence of 8 µg/ml of Polybrene® (Sigma, Catalog no. H9268). The Jurkat-NFAT-GFP cells are engineered in such a way that the IL-2 promoter, which carries NFAT binding sites, is cloned upstream of the GFP gene. These cells have been used to study signaling via TCR and CAR. The different SARs were stably expressed in Jurkat NFAT-GFP cells by lentiviral mediated gene transfer, followed by selection with puromycin or blasticidin. No drug selection was used in case the construct lacked an antibiotic resistance gene. The SAR-expressing Jurkat-NFAT-GFP cells were cocultured with the target cells at E:T ratio of approximately 1:2 for approximately 4 hours to 18 hours. When the interaction between SIRs and their target antigen results in activation of the NFAT pathway, GFP expression is induced. […] GFP expression was monitored by FACS analysis. The Jurkat-NFAT-GFP (parental) cells were used as control. The structure of different constructs can be determined based on their names. […] The sequence of the other constructs in the table can be similarly determined from their names and by referring to the different Tables of this disclosure that provide the names and SEQ ID NO of the different modules. Alternatively, the composition and modular architecture of the different SAR constructs can be determined from their sequences by bioinformatics tools, including using nucleic acid and amino acids homology searches. A SAR is considered positive in the assay in case the SAR expressing Jurkat-NFAT-GFP cells show greater % GFP positive cells when cultured with the target cell line as compared to parental Jurkat-NFAT-GFP cells. […] In general, the number +/-, +, 2+, 3+, 4+, 5+ refer to approximately 5%, 10%, 20%, 30%, 40% and 50% GFP positive cells. The % of GFP induction in the above assay is dependent not only the relative strength of the SAR but also, among other factors, on the relative level of expression of the SAR in the JNG cells and the relative level of expression of the target antigen in the target cell line. To control for the difference in gene transduction efficiency of the different SAR constructs, the experiment was conducted with JNG cells transduced with SAR constructs co-expressing a drug resistance gene (e.g., puromycin or PAC) followed by drug selection to generate a stable population of SAR-expressing cells. It is to be noted that the drug resistance gene (e.g., PAC) in the SAR constructs is optional and in vivo studies were conducted with SAR constructs lacking the PAC gene.

In experiment [2] the test system is Nalm6 cells. The experiment can be described thus: JNG assay, co-culture with Nalm6 cells. The conditions noted are these: for NFAT-GFP ASSAY: Nalm6: co-culture with Nalm6. In outline: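 GFP expression induced through the NFAT pathway was monitored by FACS once SAR-bearing Jurkat reporters had been cultured with target cells at an approximate 1:2 ratio for 4 to 18 hours; parental reporter cells served as the baseline.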

Experiment [3] concerns RAJI cells. The experiment is described as follows: JNG assay, co-culture with RAJI cells. Conditions: for NFAT-GFP ASSAY: Raji: JNG cells expressing construct, co-culture with Raji. An outline of the steps: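 Jurkat-NFAT-GFP (JNG) cells stably expressing SAR constructs via lentiviral transduction and puromycin/blasticidin selection were cocultured with target cells at E:T ~1:2 for ~4–18 h. NFAT-driven GFP was measured by FACS versus parental JNG cells; scores +/- to 5+ denote ~5–50% GFP-positive cells.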

B1: 22126 (protein)
chain: MALPVTALLLPLALLLHAARPEVQLVESGGGLVQPGGSLRLSCAASGFSFSDFWMSWVRQAPGKGLEWVATISQAGSEKDYVDSVKGRFTISRDNAKKSLYLQMNSLRAEDTAVYYCASGVYSFDYRGQGTLVTVSSGTGGGGSGGGGSGGGGSEFDIQMTQSPSSLSASVGDRVTITCKASDHINNWLAWYQQKPGQAPKLLIYGATTLETGVPSRFSGSGSGTDYTLTISSLQPEDFATYYCQQSWNTPWTFGQGTKLEIKRLEDLKNVFPPEVAVFEPSKAEIAHTQKATLVCLATGFYPDHVELSWWVNGKEVHSGVCTDPQPLKEQPALNDSRYCLSSRLRVSATFWQNPRNHFRCQVQFYGLSENDEWTQDRAKPVTQIVSAEAWGRADCGITSASYHQGVLSATILYEILLGKATLYAVLVSALVLMAMVKRKDSRGRAKRSGSGATNFSLLKQAGDVEENPGPTSATMDWIWRILFLVGAATGAHSGPQVQLQESGGGLAQAGGSLRLSCAASGRTFSMGWFRQAPGKEREFVAAITYSGGSPYYASSVRGRFTISRDNAKNTVYLQMNSLKPEDTAVYYCAANPTYGSDWNAENWGQGTQVTVSSGSGGGGSGGGGSGGGGSFEQVQLQQPGAELVKPGASVKMSCKASGYAFSSYWINWMKQKPGQGLEWIGQIYPGDGDTNYNGKFKGRATLTADTSSSTAYMQLSSLTSEDSAVYFCARSITTVVGCAMDYWGQGTSVTVSSTRIQNPDPAVYQLRDSKSSDKSVCLFTDFDSQTNVSQSKDSDVYITDKCVLDMRSMDFKSNSAVAWSNKSDFACANAFNNSIIPEDTFFPSSDVPCDVKLVEKSFETDTNLNFQNLSVIGFRILLLKVAGFNLLMTLRLWSSRAKRSGSGVKQTLNFDLLKLAGDVESNPGPSRGHMTEYKPTVRLATRDDVPRAVRTLAAAFADYPATRHTVDPDRHIERVTELQELFLTRVGLDIGKVWVADDGAAVAVWTTPESVEAGAVFAEIGPRMAELSGSRLAAQQQMEGLLAPHRPKEPAWFLATVGVSPDHQGKGLGSAVVLPGVEAAERAGVPAFLETSAPRNLPFYERLGFTVTADVEVPEGPRTWCMTRKPGA
With B1, the “NFAT-GFP ASSAY: RS411” value in experiment [1] was “+/- (refer to approximately 5%, 10%, 20%, 30%, 40% and 50% GFP positive cells)”. For the same molecule, the “NFAT-GFP ASSAY: Nalm6” value in experiment [2] was 5+ (refer to approximately 5%, 10%, 20%, 30%, 40% and 50% GFP positive cells). Moreover, in experiment [3], the “NFAT-GFP ASSAY: Raji” value was 5+ (refer to approximately 5%, 10%, 20%, 30%, 40% and 50% GFP positive cells).

B2: SEQ ID NO: 22162: bispecific SAR construct targeting CD19 and PD1 (protein)
chain: MALPVTALLLPLALLLHAARPDIQMTQSPSSLSASVGDRVTITCKASDHINNWLAWYQQKPGQAPKLLIYGATTLETGVPSRFSGSGSGTDYTLTISSLQPEDFATYYCQQSWNTPWTFGQGTKLEIKRLEDLKNVFPPEVAVFEPSEAEISHTQKATLVCLATGFYPDHVELSWWVNGKEVHSGVCTDPQPLKEQPALNDSRYCLSSRLRVSATFWQNPRNHFRCQVQFYGLSENDEWTQDRAKPVTQIVSAEAWGRADCGFTSESYQQGVLSATILYEILLGKATLYAVLVSALVLMAMVKRKDSRGRAKRSGSGATNFSLLKQAGDVEENPGPTSATMDWIWRILFLVGAATGAHSGPEVQLLESGGGLVQPGGSLRLSCAASGSIASIHAMGWFRQAPGKEREFVAVITWSGGITYYADSVKGRFTISRDNSKNTVYLQMNSLRPEDTALYYCAGDKHQSSWYDYWGQGTLVTVSSGSGGGGSGGGGSGGGGSFEQVQLQQPGAELVKPGASVKMSCKASGYAFSSYWINWMKQKPGQGLEWIGQIYPGDGDTNYNGKFKGRATLTADTSSSTAYMQLSSLTSEDSAVYFCARSITTVVGCAMDYWGQGTSVTVSSTRIQNPDPAVYQLRDSKSSDKSVCLFTDFDSQTNVSQSKDSDVYITDKCVLDMRSMDFKSNSAVAWSNKSDFACANAFNNSIIPEDTFFPSPESSCDVKLVEKSFETDTNLNFQNLSVIGFRILLLKVAGFNLLMTLRLWSSRAKRSGSGVKQTLNFDLLKLAGDVESNPGPSRGHMTEYKPTVRLATRDDVPRAVRTLAAAFADYPATRHTVDPDRHIERVTELQELFLTRVGLDIGKVWVADDGAAVAVWTTPESVEAGAVFAEIGPRMAELSGSRLAAQQQMEGLLAPHRPKEPAWFLATVGVSPDHQGKGLGSAVVLPGVEAAERAGVPAFLETSAPRNLPFYERLGFTVTADVEVPEGPRTWCMTRKPGA
For the molecule B2, the “GFP induction / activity” value in experiment [1] (co-culture with RS;411 cells), in experiment [2] (co-culture with Nalm6 cells) and in experiment [3] (co-culture with RAJI cells) was “robust activity” each time.

B3: 22136 (protein)
chain: MALPVTALLLPLALLLHAARPEVQLVESGGGLVQAGGSLRLSCAASGRTFSMGWFRQAPGKEREFVAAITYSGGSPYYADSVKGRFTISRDNAKNTVYLQMNSLKPEDTAVYYCAANPTYGSDWNAENWGQGTQVTVSSGTGGGGSGGGGSGGGGSEFDIQMTQSPSSLSASVGDRVTITCKASDHINNWLAWYQQKPGQAPKLLIYGATTLETGVPSRFSGSGSGTDYTLTISSLQPEDFATYYCQQSWNTPWTFGQGTKLEIKRLEDLKNVFPPEVAVFEPSEAEISHTQKATLVCLATGFYPDHVELSWWVNGKEVHSGVCTDPQPLKEQPALNDSRYCLSSRLRVSATFWQNPRNHFRCQVQFYGLSENDEWTQDRAKPVTQIVSAEAWGRADCGFTSESYQQGVLSATILYEILLGKATLYAVLVSALVLMAMVKRKDSRGRAKRSGSGATNFSLLKQAGDVEENPGPTSATMDWIWRILFLVGAATGAHSGPQVQLQESGGGLAQAGGSLRLSCAASGRTFSMGWFRQAPGKEREFVAAITYSGGSPYYASSVRGRFTISRDNAKNTVYLQMNSLKPEDTAVYYCAANPTYGSDWNAENWGQGTQVTVSSGSGGGGSGGGGSGGGGSFEQVQLQQPGAELVKPGASVKMSCKASGYAFSSYWINWMKQKPGQGLEWIGQIYPGDGDTNYNGKFKGRATLTADTSSSTAYMQLSSLTSEDSAVYFCARSITTVVGCAMDYWGQGTSVTVSSTRIQNPDPAVYQLRDSKSSDKSVCLFTDFDSQTNVSQSKDSDVYITDKCVLDMRSMDFKSNSAVAWSNKSDFACANAFNNSIIPEDTFFPSPESSCDVKLVEKSFETDTNLNFQNLSVIGFRILLLKVAGFNLLMTLRLWSSRAKRSGSGVKQTLNFDLLKLAGDVESNPGPSRGHMTEYKPTVRLATRDDVPRAVRTLAAAFADYPATRHTVDPDRHIERVTELQELFLTRVGLDIGKVWVADDGAAVAVWTTPESVEAGAVFAEIGPRMAELSGSRLAAQQQMEGLLAPHRPKEPAWFLATVGVSPDHQGKGLGSAVVLPGVEAAERAGVPAFLETSAPRNLPFYERLGFTVTADVEVPEGPRTWCMTRKPGA
On to B3, for which the “NFAT-GFP ASSAY: RS411” value in experiment [1] was “+ (refer to approximately 5%, 10%, 20%, 30%, 40% and 50% GFP positive cells)”. For the same molecule, in experiment [2], the “NFAT-GFP ASSAY: Nalm6” value is “+ (refer to approximately 5%, 10%, 20%, 30%, 40% and 50% GFP positive cells)”. Moreover, the “NFAT-GFP ASSAY: Raji” value in experiment [3] was 3+ (refer to approximately 5%, 10%, 20%, 30%, 40% and 50% GFP positive cells).

Source of the values: US20230212319A1, “NOVEL ANTIGEN BINDING DOMAINS AND SYNTHETIC ANTIGEN RECEPTORS INCORPORATING THE SAME” (University of Southern California, priority 2020, published 2023).
